One experiment has as its target T1, human CD39 (gene ID 953) (human, UniProt P49961 5-510).
T1 construct: Cell-surface form: transiently or stably transfected HEK cells, PBMCs, AML cell lines; also called native CD39; human CD39 transfected HEK cells
T1 sequence: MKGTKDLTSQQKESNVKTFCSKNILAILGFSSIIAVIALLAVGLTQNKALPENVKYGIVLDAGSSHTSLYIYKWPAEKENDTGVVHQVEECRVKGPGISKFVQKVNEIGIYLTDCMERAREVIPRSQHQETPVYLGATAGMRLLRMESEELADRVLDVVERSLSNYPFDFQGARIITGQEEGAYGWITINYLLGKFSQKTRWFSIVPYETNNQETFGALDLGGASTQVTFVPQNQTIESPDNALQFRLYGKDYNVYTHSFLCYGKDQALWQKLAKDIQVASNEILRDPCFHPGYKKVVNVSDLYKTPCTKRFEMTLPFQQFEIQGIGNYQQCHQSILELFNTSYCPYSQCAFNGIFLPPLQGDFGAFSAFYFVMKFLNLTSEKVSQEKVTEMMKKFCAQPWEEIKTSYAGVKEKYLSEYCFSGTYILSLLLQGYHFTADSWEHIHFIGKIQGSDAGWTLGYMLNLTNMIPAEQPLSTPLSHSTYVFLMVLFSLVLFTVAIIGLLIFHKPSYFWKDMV
The experiment can be described thus: flow cytometry, rabbit IgG hcAb supernatant on transfected HEK cells. Background: A flow cytometer gives signals particle by particle.

For experiment [1], the target named is recombinant human CD39 ectodomain with C-terminal His6x tag (human) (UniProt P49961). In words: BLI (Octet RED96), rabbit IgG hcAb on protein A biosensor, recombinant CD39 ectodomain as analyte.
For experiment [2] the target is unchanged. In words: BLI (Octet RED96), rabbit IgG hcAb on protein A biosensor, recombinant CD39 ectodomain as analyte at 200 ng/µl.

This is an account of results in patent US20240352144A1 (UNIVERSIT TSKLINIKUM HAMBURG EPPENDORF, published 2024).

B1: SB129 rabbit IgG hcAb (Fc fusion, not shown: a dimerising Fc or GST)
VHH: QVQLVESGGGLVQAGDSLRLSCAASGRTPITTTTGWFRQAPGKEREFVAAIRWNSGDAAYADSAKGRFTISRDSAKNTLYLQMNNLEPEDTAVYYCAAKYSRYAPQSTDYDYWGQGTQVTVSS
notes: also called family 2
As to B1, the binding result in the experiment with human CD39 (gene ID 953) is “binds”. Besides, the off-rate constant (koff) in experiment [1] came to 0.05 s⁻¹; in experiment [2], 0.052 s⁻¹.

B2: SB28 rabbit IgG hcAb (Fc fusion, not shown: a dimerising Fc or GST)
VHH: QVQLVESGGGLVQPGGSLRLSCAASGSIFNFNAMGWYRQAPGKQRELVAAITSGGSTNYADSVKGRFTISRDNAKNTVYLQMNSLKPEDTAVYYCHGIGGSTWFGEEEYDYWGQGTQVTVSS
notes: also called family 1
Consider B2, for which the binding result with human CD39 (gene ID 953) is listed as “binds”. Moreover, the koff in experiment [1] was determined as 0.0003 s⁻¹; in experiment [2], 0.00039 s⁻¹.

For orientation: koff means the rate constant with which the complex falls apart.
